{"source": "paper PMC6322740", "about": "“Structural characterization of a pathogenicity-related superoxide dismutase codified by a probably essential gene in Xanthomonas citri subsp. citri” (PLoS ONE, 2019)", "proteins": {"B1": {"name": "XcSOD, manganese containing superoxide dismutase from Xanthomonas citri subsp. citri (enzyme)", "chain": "MAYTLPQLPYAYDALEPNIDAQTMEIHHTKHHQTYINNVNAALEGTEYADLPIEELVSKLKSLPENLQGPVRNNGGGHANHSLFWTVLSPNGGGEPKGEVAKAIDKDLGGFEKFKEAFTKAAVSRFGSGWAWLSVTPDKKLVVESTANQDSPLFEGNTPILGLDVWEHAYYLKYQNRRPEYIGAFYNAVNWEEVERRYHAAIA", "notes": "Cloned in pET28a; His-tag removed with thrombin before size exclusion chromatography and crystallization; also called MnSOD; product of the sodM gene (XAC2386); source: E. coli BL21 (DE3), purified (Ni-NTA, thrombin, size exclusion chromatography); not shown: His-tag, N-terminal, cleaved"}}, "target": "the molecule itself", "test": "SEC; Superdex 200 10/300, 50 mM Tris-HCl pH 8.0, 150 mM NaCl; tag removed with thrombin; oligomeric state estimated from the molecular mass", "data": [{"protein": "B1", "values": [{"measurement": "stoichiometry N", "value": 2}]}]}
